Assay results taken from patent publication US20240115720A1, “ANTIBODY-PYRROLOBENZODIAZEPINE DERIVATIVE CONJUGATE” (MEMORIAL SLOAN KETTERING CANCER CENTER, priority 2021, published 2024).

How the values were obtained:
DLL4 = DLL4 (Homo sapiens, UniProt Q9NR61); assay: Selectivity of binding among delta-like ligands (FIG. 11)
DLL3 [1] = biological target: T1, DLL3 (Homo sapiens, UniProt Q9NYJ7); assay: 4/37 internalization assay (staining at 4° C. versus 37° C., flow cytometry); type: cell-based; parameters: endogenous in cells; host or cells: NCI-H82; details: NCI-H82 cells, compared with reference monoclonal antibody SC16
T1 sequence (Q9NYJ7 27-618): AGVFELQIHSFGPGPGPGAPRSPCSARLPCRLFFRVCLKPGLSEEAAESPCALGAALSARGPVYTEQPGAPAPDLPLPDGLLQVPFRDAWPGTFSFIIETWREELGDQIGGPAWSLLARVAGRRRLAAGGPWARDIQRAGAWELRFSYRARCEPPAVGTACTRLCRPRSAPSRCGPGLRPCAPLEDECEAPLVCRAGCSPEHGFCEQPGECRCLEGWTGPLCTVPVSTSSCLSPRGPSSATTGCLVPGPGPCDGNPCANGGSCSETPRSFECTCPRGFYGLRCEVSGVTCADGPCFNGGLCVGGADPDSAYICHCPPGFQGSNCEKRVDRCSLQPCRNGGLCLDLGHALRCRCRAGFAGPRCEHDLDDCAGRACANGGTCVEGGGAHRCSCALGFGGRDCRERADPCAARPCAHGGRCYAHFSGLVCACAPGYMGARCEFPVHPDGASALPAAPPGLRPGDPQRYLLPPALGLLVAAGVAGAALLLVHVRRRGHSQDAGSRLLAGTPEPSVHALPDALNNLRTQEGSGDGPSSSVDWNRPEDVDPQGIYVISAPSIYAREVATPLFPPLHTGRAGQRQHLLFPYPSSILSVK
Protocol: The four monoclonal antibodies (6-G23-F, 2-C8-A, 7-I1-B and 10-O18-A) were compared for their ability to internalize DLL3 by comparing the staining at 4° C. with that at 37° C. A reference monoclonal antibody SC16, which is known to internalize via DLL3 and to have ADC activity, and which was previously reported in the literature, was used as the positive control for internalization. NCI-H82 cells in exponential growth were harvested with trypsin/EDTA, washed once in RPMI containing 10% fetal calf serum (FCS) and resuspended in DMEM supplemented with 10% FCS at 2×10^7 cells/ml. 100 μl (2×10^6 cells) were added to U bottom 96 well plates. The test monoclonal antibodies (6-G23-F, 2-C8-A, 7-I1-B or 10-O18-A) or the reference monoclonal antibody were added to separate wells to give a final concentration of 10 μg/ml in duplicate plates. […] After 30 minutes incubation at 4° C. the cells were washed three times in cold wash buffer and either fixed in PBS 0.5% paraformaldehyde and analyzed by flow cytometry within 48 hours. The mean fluorescent intensity (MFI) ratios calculated by dividing the MFI obtained from the control plate (which incubated with the antibodies at 4° C.) by the corresponding MFI obtained from the experimental plate (which incubated with the antibodies at 37° C.) was taken as a relative measure of internalization. […]

293 (negative control) = assay: Flow cytometry binding to 293 cells (negative control); details: 10 μg/ml
Protocol: The four monoclonal antibodies (6-G23-F, 2-C8-A, 7-I1-B and 10-O18-A) were tested for their ability to bind to mouse and cynomolgous DLL3 as well as endogenous human DLL3 by flow cytometry. For this purpose, HEK293 cells were transfected with plasmid DNA encoding full-length human, mouse or cynomolgous DLL3 and used in the experiment. Briefly […] transfected HEK293 cells or NCI-H82 primary cells were added in FACS buffer PBS 0.5% BSA to the wells of a 96 well U bottom plate and purified monoclonal added to 10 μg/ml. After 30 minutes incubation at 4° C. the cells were washed 3 times in FACS buffer and incubated with a PE labelled F(ab)2 anti-mouse IgG H and L 2nd stage. After another 30 minutes incubation at 4° C. the cells were washed three times in FACS buffer and analyzed on the flow cytometer. Data are presented at the ratio of the Mean Fluorescent Intensity for the monoclonal divided by the background staining with the 2nd stage.

DLL1 = biological target: T2, DLL1 (Homo sapiens, UniProt O00548); assay: Selectivity of binding among delta-like ligands (FIG. 11)
T2 sequence (O00548 18-723): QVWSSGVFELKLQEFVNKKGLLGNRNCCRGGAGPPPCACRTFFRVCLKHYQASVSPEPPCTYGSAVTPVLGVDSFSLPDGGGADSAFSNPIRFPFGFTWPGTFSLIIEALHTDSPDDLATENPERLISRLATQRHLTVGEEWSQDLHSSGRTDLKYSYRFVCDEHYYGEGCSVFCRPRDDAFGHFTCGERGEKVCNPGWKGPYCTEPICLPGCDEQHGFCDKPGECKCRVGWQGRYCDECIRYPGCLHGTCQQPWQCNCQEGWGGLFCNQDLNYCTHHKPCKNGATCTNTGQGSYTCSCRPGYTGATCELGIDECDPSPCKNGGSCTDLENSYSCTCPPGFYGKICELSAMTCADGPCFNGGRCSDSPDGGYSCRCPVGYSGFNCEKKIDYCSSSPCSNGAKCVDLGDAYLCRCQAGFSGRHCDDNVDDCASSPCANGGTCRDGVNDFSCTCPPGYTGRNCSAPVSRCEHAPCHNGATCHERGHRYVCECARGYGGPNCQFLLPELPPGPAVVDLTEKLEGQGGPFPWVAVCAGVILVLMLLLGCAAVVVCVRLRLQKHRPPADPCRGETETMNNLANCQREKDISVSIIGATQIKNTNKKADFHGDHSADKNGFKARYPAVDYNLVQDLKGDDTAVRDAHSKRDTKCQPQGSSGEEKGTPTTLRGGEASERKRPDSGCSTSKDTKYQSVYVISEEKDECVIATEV

DLL3 [2] = biological target: T1, DLL3; assay: as above
[3] = biological target: T3, Histidine-tagged DLL3 antigen (DLL3-His) (Homo sapiens, UniProt Q9NYJ7); assay: Pairwise epitope binning, Carterra array SPR; details: pairwise competition for binding to DLL3-His
T3 sequence (Q9NYJ7 27-479): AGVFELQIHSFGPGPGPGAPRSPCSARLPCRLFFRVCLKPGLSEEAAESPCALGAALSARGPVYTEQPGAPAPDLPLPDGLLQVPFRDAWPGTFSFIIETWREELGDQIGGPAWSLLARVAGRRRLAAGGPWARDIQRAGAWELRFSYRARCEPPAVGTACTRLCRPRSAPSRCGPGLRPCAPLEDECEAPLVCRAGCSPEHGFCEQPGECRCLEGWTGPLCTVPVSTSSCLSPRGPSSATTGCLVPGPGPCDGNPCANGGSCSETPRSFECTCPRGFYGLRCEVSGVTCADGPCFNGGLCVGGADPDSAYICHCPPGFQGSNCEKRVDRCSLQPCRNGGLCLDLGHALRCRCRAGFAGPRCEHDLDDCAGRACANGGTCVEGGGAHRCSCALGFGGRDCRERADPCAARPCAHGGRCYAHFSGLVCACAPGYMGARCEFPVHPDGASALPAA
Protocol: The panel of purified anti-DLL3 monoclonal antibodies and the reference monoclonal antibody were subjected to pairwise epitope binning on a Carterra® array surface plasmon resonance (SPR) assay platform (Carterra® Inc., Salt Lake City UT) where each monoclonal antibody was tested for the capture of Histidine-tagged DLL3 antigen (DLL3-His), and also for competing with every other antibody in the panel for the binding to DLL3-His. The antibodies were immobilized on a HC200M chip (ligand) through standard amine coupling techniques by the print array method. Then in each cycle antigen was injected across the entire array followed by a single antibody (analyte). At the end of each cycle the surface was regenerated to remove antigen and analyte before a new cycle started. As shown in the Table below, three different bins were identified with the panel with 7-I1-B and 2-C8-A mapping to bin 2 while 6-G23-F was in bin 3 and 10-O18-A was in bin 1.

Sequence of DLL4 (Q9NR61 27-685): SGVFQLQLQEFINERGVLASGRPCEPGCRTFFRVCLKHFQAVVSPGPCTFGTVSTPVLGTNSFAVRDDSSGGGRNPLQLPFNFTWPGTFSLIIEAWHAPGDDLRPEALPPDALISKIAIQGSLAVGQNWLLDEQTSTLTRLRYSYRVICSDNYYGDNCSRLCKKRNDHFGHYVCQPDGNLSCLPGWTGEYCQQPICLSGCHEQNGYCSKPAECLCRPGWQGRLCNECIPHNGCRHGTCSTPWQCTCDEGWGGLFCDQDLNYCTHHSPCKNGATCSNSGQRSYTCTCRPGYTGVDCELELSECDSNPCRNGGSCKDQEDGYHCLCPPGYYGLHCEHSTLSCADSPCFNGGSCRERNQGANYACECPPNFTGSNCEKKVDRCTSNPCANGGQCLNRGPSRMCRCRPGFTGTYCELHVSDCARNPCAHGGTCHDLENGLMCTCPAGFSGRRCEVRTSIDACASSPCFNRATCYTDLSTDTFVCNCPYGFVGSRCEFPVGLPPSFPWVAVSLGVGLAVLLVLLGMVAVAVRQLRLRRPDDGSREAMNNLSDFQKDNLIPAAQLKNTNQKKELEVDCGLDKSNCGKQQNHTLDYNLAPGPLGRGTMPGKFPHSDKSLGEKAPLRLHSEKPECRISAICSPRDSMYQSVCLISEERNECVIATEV

B1: 2-C8-A: anti-DLL3 monoclonal antibody, VH SEQ ID NO: 12 and VL SEQ ID NO: 17 (antibody, V domains shown)
VH: EVQLVESGGGLVQPGGSQRLSCAASGFTFSSYWMNWVRQAPGKGLEWVANIKEDGSEKYYVDSVKGRFTISRDNAKNSLYLQMNSLRAEDTAVYYCARDPGWAPFDYWGQGTLVTVSS
VL: DIQMSQSPSSLSASVGDRVTITCRASQGISNYLAWFQQKPGKAPKSLIYAASSLQSGVPSKFSGSGSGTDFTLAISSLQPEDFATYYCQQYNSFPYTFGQGTTLEIK
binding to DLL4 (DLL4): not DLL1 or DLL4 | ability to internalize DLL3 (DLL3 [1]): able to internalize on binding DLL3 but not to the extent of the reference monoclonal antibody | 293 (negative control) (ratio of MFI for the monoclonal divided by background staining with the 2nd stage) (293 (negative control)): 0.59 | binding to DLL1 (DLL1): not DLL1 or DLL4 | binding to DLL3 (DLL3 [2]): selectively bind DLL3 | Epitope Bin [3]: 2
